For 13 substances, IC50 and EC50, inhibition of forskolin-stimulated cAMP production (CHO-A10 clone 6 cells) results are on record in patent US20040116336A1, “Peptide derivatives” (priority 2002, published 2004).

The target in experiment [1] is APJ (orphan G protein-coupled receptor protein). Briefly: radioligand competition, compound of Ref. Ex. 2 as labelled ligand, CHO-A10 membrane fraction. Background: Loss of bound radioactivity is the signal in a displacement assay; it reports binding, not function.
APJ (orphan G protein-coupled receptor protein), sequence (P35414 whole entry): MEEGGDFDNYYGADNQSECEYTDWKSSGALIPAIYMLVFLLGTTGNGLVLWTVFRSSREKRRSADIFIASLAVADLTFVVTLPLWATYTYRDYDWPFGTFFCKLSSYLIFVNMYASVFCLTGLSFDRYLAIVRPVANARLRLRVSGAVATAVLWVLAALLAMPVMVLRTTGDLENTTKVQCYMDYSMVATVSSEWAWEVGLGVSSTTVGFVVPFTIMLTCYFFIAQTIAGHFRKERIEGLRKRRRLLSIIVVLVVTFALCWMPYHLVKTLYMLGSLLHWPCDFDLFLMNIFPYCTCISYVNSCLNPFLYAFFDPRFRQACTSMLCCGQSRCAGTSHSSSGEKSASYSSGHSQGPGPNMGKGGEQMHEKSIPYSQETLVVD
Experiment [2] has the same target. Briefly: radioligand competition, 125I-labelled compound of Ref. Ex. 1 (100 pM), CHO-A10 membrane fraction.
Experiment [3] has the same target. Briefly: cell-based or functional assay.

For the substance “Arg-Arg-Gln-Arg-Pro-Arg-Leu-Ser-Ala-Arg-Gly-Pro-Met-Pro-Phe(Cl) (peptide)”, the IC50 (as a rule, the concentration that gives 50% inhibition) in experiment [1] amounted to 0.1 nM; in experiment [2], 0.2 nM.
For the substance “Arg-Arg-Gln-Arg-Pro-Arg-Leu-Ser-Ala-Arg-Gly-Pro-Met-Pro-Phe(Cl)-NH2 (peptide)”, the IC50 is 0.18 nM in experiment [1] and 0.32 nM in experiment [2]. Also, the EC50, inhibition of forskolin-stimulated cAMP production (CHO-A10 clone 6 cells) in experiment [3] was determined as 0.32 nM.
As to “Arg-Pro-Arg-Leu-Phe-His-Lys-Gly-Pro-Met-Pro-Phe(Cl) (peptide)”, the values for the IC50 in experiment [1] and in experiment [2] were 0.066 nM and 8 nM, respectively. Besides, the EC50, inhibition of forskolin-stimulated cAMP production (CHO-A10 clone 6 cells) in experiment [3] came out at 0.38 nM.
“Arg-Pro-Arg-Leu-Ser-Ala-Arg-Gly-Gly-Met-Pro-Phe(Cl) (peptide)” had an IC50 in experiment [1] of 0.29 nM. Also, the EC50, inhibition of forskolin-stimulated cAMP production (CHO-A10 clone 6 cells) in experiment [3] stood at 0.19 nM.
For “Arg-Pro-Arg-Leu-Ser-Ala-Arg-Gly-N-MeAla-Met-Pro-Phe(Cl) (peptide)”, the IC50 in experiment [1] turned out to be 0.09 nM; in experiment [2], 0.27 nM. The same substance displayed an EC50, inhibition of forskolin-stimulated cAMP production (CHO-A10 clone 6 cells) in experiment [3] of 0.27 nM.
For the substance “Arg-Pro-Arg-Leu-Ser-Ala-Arg-Gly-Pro-Ala-Pro-Phe(Cl) (peptide)”, the IC50 in experiment [1] was determined as 0.064 nM; in experiment [2], 0.37 nM. The EC50, inhibition of forskolin-stimulated cAMP production (CHO-A10 clone 6 cells) in experiment [3] was found to be 0.37 nM.
Turning to “Arg-Pro-Arg-Leu-Ser-Ala-Arg-Gly-Pro-Met-Pro-Phe(Cl) (peptide)”, the results for the IC50 in experiment [1] and in experiment [2] were 0.036 nM and 0.91 nM, respectively. Further, in experiment [3], the EC50, inhibition of forskolin-stimulated cAMP production (CHO-A10 clone 6 cells) was 0.32 nM.
In the same order, the values of “Arg-Pro-Arg-Leu-Ser-Dap(Ac)-Arg-Gly-Pro-Cha-Pro-Phe(Cl) (peptide)” are 0.11 nM, 0.69 nM and 0.69 nM.
Turning to “Arg-Pro-Arg-Leu-Ser-Dap-Arg-Gly-Pro-Cha-Pro-Phe(Cl) (peptide)”, the IC50 in experiment [1] was found to be 0.26 nM; in experiment [2], 0.52 nM. Also, the EC50, inhibition of forskolin-stimulated cAMP production (CHO-A10 clone 6 cells) in experiment [3] was 0.52 nM.
For “Arg-Pro-Arg-Leu-Ser-His-Lys-Gly-Pro-Cha-Pro-Phe(Cl) (peptide)”, the IC50 in experiment [2] was determined as 1.4 nM. In experiment [3], this substance yielded an EC50, inhibition of forskolin-stimulated cAMP production (CHO-A10 clone 6 cells) of 0.41 nM.
For “Arg-Pro-Arg-Leu-Ser-His-Lys-Gly-Pro-Met-Phe(Cl) (peptide)”, the IC50 in experiment [1] came out at 0.17 nM. This substance also had an EC50, inhibition of forskolin-stimulated cAMP production (CHO-A10 clone 6 cells) in experiment [3] of 0.16 nM.
For “pGlu-Arg-Pro-Arg-Leu-Ser-His-Lys-Gly-Pro-Met-Phe(Cl) (peptide)” the same measures were 0.48 nM and 0.43 nM.
In experiment [3], “pGlu-Arg-Pro-Arg-Leu-Ser-His-Lys-Gly-Pro-Met-Pro-Nal(2) (peptide)” registered an EC50, inhibition of forskolin-stimulated cAMP production (CHO-A10 clone 6 cells) of 0.4 nM.
